Results as given in PMC3558595 (Integrative biology : quantitative biosciences from nano to …, 2013).

Target: the molecule itself
Test: FRET or BRET

B1: Wzm, transmembrane protein of the A-band polysaccharide ABC transporter of Pseudomonas aeruginosa, fused to GFP2 or YFP (natural protein, Pseudomonas aeruginosa PAO1, UniProt Q9HTB8 1-265, looked up)
chain: MLLGLSRSLWGYRGFVLGSVKREFQSRYRGSLFGALWTVLNPLSMIVVYTVIFSQVMRARLPGVDDGLAYSVYLCAGLLTWGLFAEITSRSQSMFIENANLLKKISFPRICLPVIVLLNAGVNFAIILALFLGFLALSGRLPGAALLALVPLLAIQVLFAAGLGMILGVLNVFFRDVGQLFGICLQFWFWLTPIVYPIGILPEGIRSLIELNPMTALMRSYQQLFLHGQWPDWPSLLPITLLALLLCALGLRLFRQRVGEMVDEL
stoichiometry N: 4
